# Data as given in patent publication US20200087400A1 (EUREKA THERAPEUTICS, published 2020).
# Residue numbers refer to the chain shown, from its start.
# B1: PSA146/HLA-A*02:01-specific scFv phage clone #6 (scFv, V domains shown)
# VH: EVQLVQSGAEVKKPGASVKVSCKASGYTFTGYYIHWVRQAPGQGLEWMGGFDPEDGETIYAQKFQDRVTMTADTSTDTAYMELSSLRSEDTAVYYCARYGFDYWGQGTLVTVSS
# VL: QAVVTQEPSLTVSPGGTVTLTCASSTGAVTSGYYPNWFQLKPGQAPRALIYTTGKKHSWAPARFSGSLLGGKAALTLSGVQPEDEAEYYCLLYSGGVWVFGGGTKLTVLG
# B2: PSA146/HLA-A*02:01-specific scFv phage clone #3 (scFv, V domains shown)
# VH: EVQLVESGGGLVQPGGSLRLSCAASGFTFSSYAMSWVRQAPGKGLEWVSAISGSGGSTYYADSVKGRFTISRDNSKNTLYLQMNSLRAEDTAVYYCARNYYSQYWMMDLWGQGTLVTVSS
# VL: QSVLTQPPSVSGAPGQRVTISCTGSSSNFGAGYDVHWYQQLPGAAPKLLIYGDTNRPSGVPDRFSGSKSGTSASLAITGLQAEDEADYYCQSYDTSLSGSVFGGGTKLTVLG
# B3: PSA146/HLA-A*02:01-specific scFv phage clone #5 (scFv, V domains shown)
# VH: QVQLVQSGAEVKKPGDSVKVSCKPSGYNFLNYGINWVRQAPGQGLEWMGWISTYTGNTNYAQKLQGRVTFTTDTSTSTAYMEMRSLRSDDTAVYYCARSSEYYTWDHWGQGTLVTVSS
# VL: B2 VL with F29I, A44T, D53N, T54S, T95S, S100W
# B4: PSA146/HLA-A*02:01-specific scFv phage clone #2 (scFv, V domains shown)
# VH: EVQLVQSGAEVKRPGSSVKVSCKASGGTFSSYAINWVRRAPGQGLEWMGKIIPIPGITNYAQKFQDRVTFTADTSTNIAYMELSSLRSEDTAMYYCARSYKWGSSLVDAWGQGTLVTVSS
# VL: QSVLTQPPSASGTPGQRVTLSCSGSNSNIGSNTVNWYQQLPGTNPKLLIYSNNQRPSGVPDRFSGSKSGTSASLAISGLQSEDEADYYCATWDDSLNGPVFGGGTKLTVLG
# Molecular target: T1, PSA 146-154 peptide/HLA-A*02:01 complex on the cell surface (human)
# T1 construct: also called PSA146/HLA-A*02:01; PSA146-loaded T2 cells
# Experiment: flow cytometry, phage on T2 cells, anti-M13 + R-PE anti-mouse IgG
# Experimental: (§1) Individual phage clones from enriched phage display panning pools against PSA146/HLA-A*02:01 complex were incubated in the coated plates. Binding of the phage clones was detected by HRP-conjugated anti-M13 antibodies and developed using HRP substrate. The absorbance was read at 450 nm. […] Then, unique antibody clones were identified through DNA sequencing of ELISA-positive clones. […] T2 cells loaded with different peptides and β2M were first stained with purified scFv phage clones, followed by staining with a mouse anti-M13 mAb, and finally R-PE conjugated horse anti-mouse IgG from Vector Labs. Each step of the staining was performed for between 30-60 minutes on ice and the cells were washed twice between stainings. All 16 clones recognized PSA146-loaded T2 cells specifically. FIG. 3 provides examples of PSA146/HLA-A*02:01 specific phage clone binding to peptide-loaded T2 cells through FACS.
row,Binder,binding result
1,B1,binds
2,B2,binds
3,B3,binds
4,B4,binds

# Molecular target: T2, HLA-A*02:01 on T2 cells with no peptide loaded (human)
# T2 construct: TAP-deficient T2 cells, no peptide loaded from outside; also called T2 cells without peptide loading
# Experiment: as above
# Experimental: as §1
row,Binder,binding result
1,B1,no binding
2,B2,no binding
3,B3,no binding
4,B4,no binding

# Molecular target: T3, control peptide A2E-16/HLA-A*02:01 complex on T2 cells (member of the P19 mixture) (human)
# T3 construct: Loaded on T2 cells as part of the mixture of 19 control peptides
# Experiment: flow cytometry, phage on T2 cells
# Experimental: as §1
row,Binder,binding result
1,B1,no binding
2,B2,no binding
3,B3,no binding
4,B4,no binding

# Molecular target: T4, control peptide A2E-9/HLA-A*02:01 complex on T2 cells (member of the P19 mixture) (human)
# T4 construct: Loaded on T2 cells as part of the mixture of 19 control peptides
# Experiment: flow cytometry, phage on T2 cells
# Experimental: as §1
row,Binder,binding result
1,B1,no binding
2,B2,no binding
3,B3,no binding
4,B4,no binding

# Molecular target: T5, control peptide A2E-8/HLA-A*02:01 complex on T2 cells (member of the P19 mixture) (human)
# T5 construct: Loaded on T2 cells as part of the mixture of 19 control peptides
# Experiment: flow cytometry, phage on T2 cells
# Experimental: as §1
row,Binder,binding result
1,B1,no binding
2,B2,no binding
3,B3,no binding
4,B4,no binding

# Molecular target: T6, control peptide A2E-4/HLA-A*02:01 complex on T2 cells (member of the P19 mixture) (human)
# T6 construct: Loaded on T2 cells as part of the mixture of 19 control peptides
# Experiment: flow cytometry, phage on T2 cells
# Experimental: as §1
row,Binder,binding result
1,B1,no binding
2,B2,no binding
3,B3,no binding
4,B4,no binding

# Molecular target: T7, control peptide A2E-7/HLA-A*02:01 complex on T2 cells (member of the P19 mixture) (human)
# T7 construct: Loaded on T2 cells as part of the mixture of 19 control peptides
# Experiment: flow cytometry, phage on T2 cells
# Experimental: as §1
row,Binder,binding result
1,B1,no binding
2,B2,no binding
3,B3,no binding
4,B4,no binding

# Molecular target: T8, control peptide A2E-19/HLA-A*02:01 complex on T2 cells (member of the P19 mixture) (human)
# T8 construct: Loaded on T2 cells as part of the mixture of 19 control peptides
# Experiment: flow cytometry, phage on T2 cells
# Experimental: as §1
row,Binder,binding result
1,B1,no binding
2,B2,no binding
3,B3,no binding
4,B4,no binding

# Molecular target: T9, control peptide A2E-2/HLA-A*02:01 complex on T2 cells (member of the P19 mixture) (human)
# T9 construct: Loaded on T2 cells as part of the mixture of 19 control peptides
# Experiment: flow cytometry, phage on T2 cells
# Experimental: as §1
row,Binder,binding result
1,B1,no binding
2,B2,no binding
3,B3,no binding
4,B4,no binding

# Molecular target: T10, control peptide A2E-21/HLA-A*02:01 complex on T2 cells (member of the P19 mixture) (human)
# T10 construct: Loaded on T2 cells as part of the mixture of 19 control peptides
# Experiment: flow cytometry, phage on T2 cells
# Experimental: as §1
row,Binder,binding result
1,B1,no binding
2,B2,no binding
3,B3,no binding
4,B4,no binding

# Molecular target: T11, control peptide A2E-6/HLA-A*02:01 complex on T2 cells (member of the P19 mixture) (human)
# T11 construct: Loaded on T2 cells as part of the mixture of 19 control peptides
# Experiment: flow cytometry, phage on T2 cells
# Experimental: as §1
row,Binder,binding result
1,B1,no binding
2,B2,no binding
3,B3,no binding
4,B4,no binding

# Molecular target: T12, control peptide A2E-11/HLA-A*02:01 complex on T2 cells (member of the P19 mixture) (human)
# T12 construct: Loaded on T2 cells as part of the mixture of 19 control peptides
# Experiment: flow cytometry, phage on T2 cells
# Experimental: as §1
row,Binder,binding result
1,B1,no binding
2,B2,no binding
3,B3,no binding
4,B4,no binding

# Molecular target: T13, control peptide A2E-10/HLA-A*02:01 complex on T2 cells (member of the P19 mixture) (human)
# T13 construct: Loaded on T2 cells as part of the mixture of 19 control peptides
# Experiment: flow cytometry, phage on T2 cells
# Experimental: as §1
row,Binder,binding result
1,B1,no binding
2,B2,no binding
3,B3,no binding
4,B4,no binding

# Molecular target: T14, control peptide A2E-23/HLA-A*02:01 complex on T2 cells (member of the P19 mixture) (human)
# T14 construct: Loaded on T2 cells as part of the mixture of 19 control peptides
# Experiment: flow cytometry, phage on T2 cells
# Experimental: as §1
row,Binder,binding result
1,B1,no binding
2,B2,no binding
3,B3,no binding
4,B4,no binding

# Molecular target: T15, control peptide A2E-17/HLA-A*02:01 complex on T2 cells (member of the P19 mixture) (human)
# T15 construct: Loaded on T2 cells as part of the mixture of 19 control peptides
# Experiment: flow cytometry, phage on T2 cells
# Experimental: as §1
row,Binder,binding result
1,B1,no binding
2,B2,no binding
3,B3,no binding
4,B4,no binding

# Molecular target: T16, control peptide A2E-14/HLA-A*02:01 complex on T2 cells (member of the P19 mixture) (human)
# T16 construct: Loaded on T2 cells as part of the mixture of 19 control peptides
# Experiment: flow cytometry, phage on T2 cells
# Experimental: as §1
row,Binder,binding result
1,B1,no binding
2,B2,no binding
3,B3,no binding
4,B4,no binding

# Molecular target: T17, control peptide A2E-5/HLA-A*02:01 complex on T2 cells (member of the P19 mixture) (human)
# T17 construct: Loaded on T2 cells as part of the mixture of 19 control peptides
# Experiment: flow cytometry, phage on T2 cells
# Experimental: as §1
row,Binder,binding result
1,B1,no binding
2,B2,no binding
3,B3,no binding
4,B4,no binding

# Molecular target: T18, control peptide A2E-13/HLA-A*02:01 complex on T2 cells (member of the P19 mixture) (human)
# T18 construct: Loaded on T2 cells as part of the mixture of 19 control peptides
# Experiment: flow cytometry, phage on T2 cells
# Experimental: as §1
row,Binder,binding result
1,B1,no binding
2,B2,no binding
3,B3,no binding
4,B4,no binding

# Molecular target: T19, control peptide A2E-3/HLA-A*02:01 complex on T2 cells (member of the P19 mixture) (human)
# T19 construct: Loaded on T2 cells as part of the mixture of 19 control peptides
# Experiment: flow cytometry, phage on T2 cells
# Experimental: as §1
row,Binder,binding result
1,B1,no binding
2,B2,no binding
3,B3,no binding
4,B4,no binding

# Molecular target: T20, control peptide A2E-1/HLA-A*02:01 complex on T2 cells (member of the P19 mixture) (human)
# T20 construct: Loaded on T2 cells as part of the mixture of 19 control peptides
# Experiment: flow cytometry, phage on T2 cells
# Experimental: as §1
row,Binder,binding result
1,B1,no binding
2,B2,no binding
3,B3,no binding
4,B4,no binding

# Molecular target: T21, control peptide A2E-15/HLA-A*02:01 complex on T2 cells (member of the P19 mixture) (human)
# T21 construct: Loaded on T2 cells as part of the mixture of 19 control peptides
# Experiment: flow cytometry, phage on T2 cells
# Experimental: as §1
row,Binder,binding result
1,B1,no binding
2,B2,no binding
3,B3,no binding
4,B4,no binding

# Molecular target: T22, Bio-P19 member A2E-6 (chain 2 carries a C-terminal BirA substrate peptide (BSP), enzymatically biotinylated; the BSP letters are not given in the patent and are left out)
# T22 construct: also called biotinylated control peptide A2E-6/HLA-A*02:01 monomer
# Experiment: phage ELISA, streptavidin plate, anti-M13-HRP
# Experimental: as §1
row,Binder,binding result
1,B1,no binding
2,B2,no binding
3,B3,no binding
4,B4,no binding

# Molecular target: T23, Bio-P19 member A2E-13 (chain 2: C-terminal BirA substrate peptide (BSP), enzymatically biotinylated; its letters are not printed in the patent and it is left out)
# T23 construct: also called biotinylated control peptide A2E-13/HLA-A*02:01 monomer
# Experiment: phage ELISA, streptavidin plate, anti-M13-HRP
# Experimental: as §1
row,Binder,binding result
1,B1,no binding
2,B2,no binding
3,B3,no binding
4,B4,no binding

# Molecular target: T24, Bio-P19 member A2E-14 (chain 2: C-terminal BirA substrate peptide (BSP), enzymatically biotinylated; its letters are not printed in the patent and it is left out)
# T24 construct: also called biotinylated control peptide A2E-14/HLA-A*02:01 monomer
# Experiment: phage ELISA, streptavidin plate, anti-M13-HRP
# Experimental: as §1
row,Binder,binding result
1,B1,no binding
2,B2,no binding
3,B3,no binding
4,B4,no binding
